Target: SARS-CoV-2 wild-type (D614G) HexaPro S protein ectodomain (SARS-CoV-2 Wuhan-Hu-1 with D614G …, D614G)
Experiment: ELISA

B1: Fab 4A8 (Fab, V domains shown)
VH: EVQLVESGAEVKKPGASVKVSCKVSGYTLTELSMHWVRQAPGKGLEWMGGFDPEDGETMYAQKFQGRVTMTEDTSTDTAYMELSSLRSEDTAVYYCATSTAVAGTPDLFDYYYGMDVWGQGTTVTVSS
VL: EIVMTQSPLSSPVTLGQPASISCRSSQSLVHSDGNTYLSWLQQRPGQPPRLLIYKISNRFSGVPDRFSGSGAGTDFTLKISRVEAEDVGVYYCTQATQFPYTFGQGTKVDIK
B1: binds.

Reference: PMC9812370 (Cell Reports, 2023)
